This note sets out measurements from patent publication US20230235058A1 (OXFORD UNIVERSITY INNOVATION, published 2023).

Changes are numbered by the printed parent chain. In names and notes the source's numbering stands.

Assay [1] has as its target full length human BTLA expressed on cells (human, UniProt Q7Z6A9 31-289). The assay can be described thus: cell-based or functional assay.
The next assay has as its target T1, human FcγR3A 158F (human, UniProt P08637 17-208).
T1 construct: extracellular domain
As to the kind of experiment: SPR 37C, steady state.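 Also: fc variants captured on chip-bound human BTLA ectodomain, recombinant FcγR ectodomains injected as analyte at varied concentrations, double-referenced equilibrium binding fitted to Langmuir model.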

The target of the next assay is T2, human FcγR3B (human, UniProt O75015 17-200, limits assumed).
T2 construct: extracellular domain; also called CD16B
As to the kind of experiment: SPR 37C, steady state.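 Also: fc variants captured on chip-bound human BTLA ectodomain, recombinant FcγR ectodomains injected as analyte at varied concentrations, double-referenced equilibrium binding fitted to Langmuir model.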

Another assay has as its target T3, human FcγR3A 158V (human, UniProt P08637 17-208).
T3 construct: extracellular domain
As to the kind of experiment: SPR 37C, steady state.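 Also: fc variants captured on chip-bound human BTLA ectodomain, recombinant FcγR ectodomains injected as analyte at varied concentrations, double-referenced equilibrium binding fitted to Langmuir model.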

The target of a further assay is T4, human FcγR2A 131R (human, UniProt P12318 34-217).
T4 construct: extracellular domain
T4 sequence (looked up): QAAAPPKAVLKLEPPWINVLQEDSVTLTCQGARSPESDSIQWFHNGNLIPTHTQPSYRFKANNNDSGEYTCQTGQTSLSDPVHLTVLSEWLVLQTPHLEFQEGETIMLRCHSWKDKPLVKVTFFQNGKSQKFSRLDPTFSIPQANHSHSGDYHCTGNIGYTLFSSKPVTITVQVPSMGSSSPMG
As to the kind of experiment: SPR 37C, steady state.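 Also: fc variants captured on chip-bound human BTLA ectodomain, recombinant FcγR ectodomains injected as analyte at varied concentrations, double-referenced equilibrium binding fitted to Langmuir model.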

The next assay deals with T5, human FcγR2A 131H (human, UniProt P12318 34-217).
T5 construct: extracellular domain
T5 sequence (looked up): T4 sequence (looked up) with R134H
The assay can be described thus: SPR 37C, steady state.

Another assay addresses T6, human FcγR2B (human, UniProt P31994 43-217).
T6 construct: extracellular domain; also called hFcγR2B; CD32B
T6 sequence (looked up): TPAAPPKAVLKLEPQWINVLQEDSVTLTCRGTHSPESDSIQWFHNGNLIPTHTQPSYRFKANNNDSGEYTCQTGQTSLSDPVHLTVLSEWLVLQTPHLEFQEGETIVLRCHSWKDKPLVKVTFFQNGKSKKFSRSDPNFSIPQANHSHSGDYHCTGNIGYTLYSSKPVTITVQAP
The assay can be described thus: SPR 37C, steady state.

In another assay the target is T7, human FcRn (human, UniProt P55899 24-297; P61769 21-119, limits assumed, biotinylated).
T7 construct: bought; also called FcRn pH6
As to the kind of experiment: SPR, pH6.0.

T2 sequence (O75015 17-200 limits assumed): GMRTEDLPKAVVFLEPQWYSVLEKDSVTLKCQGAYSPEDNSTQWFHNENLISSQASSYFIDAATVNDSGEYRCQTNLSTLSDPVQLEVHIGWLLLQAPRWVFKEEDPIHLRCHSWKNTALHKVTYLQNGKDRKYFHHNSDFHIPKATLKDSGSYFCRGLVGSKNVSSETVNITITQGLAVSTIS
T1 sequence (P08637 17-208): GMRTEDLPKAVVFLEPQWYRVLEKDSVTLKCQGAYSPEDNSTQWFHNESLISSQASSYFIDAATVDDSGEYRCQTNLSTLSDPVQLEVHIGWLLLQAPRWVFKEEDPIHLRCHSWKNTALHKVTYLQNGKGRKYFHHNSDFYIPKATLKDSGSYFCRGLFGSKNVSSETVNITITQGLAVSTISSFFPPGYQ
T3 sequence (P08637 17-208 F176V): as the sequence (P08637 17-208) above, with F160V counted along it
T7 sequence (P55899 24-297 limits assumed, chain 1 of 2): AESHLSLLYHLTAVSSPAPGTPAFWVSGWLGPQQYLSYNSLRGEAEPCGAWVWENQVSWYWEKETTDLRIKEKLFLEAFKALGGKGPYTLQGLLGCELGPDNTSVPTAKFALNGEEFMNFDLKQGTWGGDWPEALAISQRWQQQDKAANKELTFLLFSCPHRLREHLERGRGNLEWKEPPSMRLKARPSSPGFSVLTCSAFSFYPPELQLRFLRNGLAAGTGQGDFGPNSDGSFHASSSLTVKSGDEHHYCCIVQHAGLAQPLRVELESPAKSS
T7 sequence (P61769 21-119 limits assumed, chain 2 of 2): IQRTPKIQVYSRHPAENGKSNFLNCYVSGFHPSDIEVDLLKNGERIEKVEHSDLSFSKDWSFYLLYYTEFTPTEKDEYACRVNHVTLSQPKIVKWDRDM
Procedure for human FcRn: For the high affinity FcR interactions (FcγR1A, and also FcRn assessed at pH6.0) the binding was assessed in a kinetic analysis with antibody as analyte. […] Reference flow cell 1 was left empty in all channels. Purified antibody was then injected at a single concentration and on/off rates calculated by curve fitting on BiaEvaluation software. […] IgG Fc has two binding sites for FcRn so this assessment performed with FcRn immobilised at high density provides an avidity estimate for the interaction rather than a true KD.
Procedure for human FcγR2A 131H: (§1) For the low affinity FcγRs (FcγR2A, FcγR2B, FcγR3A and FcγR3B) the interactions were assessed by surface plasmon resonance with the recombinantly expressed FcRs (extracellular domains only) as analyte. Briefly, recombinant human BTLA extracellular domain (BTLA^K31-R151) was covalently immobilised to both flow cells of all channels of a CMS Series S sensor chip using the GE Healthcare Amine coupling kit. The 2.8.6 Fc variant to be assessed was then captured (approx. 500-1000 response units) in flow cell 2 of each channel. Steady state affinity analysis was then performed by injecting varying concentrations of FcR in multiple cycles and measuring equilibrium binding. Double referencing was used (subtracting the signal in the reference Fc1 and also subtracting the signal from a blank zero concentration injection). KDs were calculated from the Langmuir curves (plotting equilibrium binding against analyte concentration to determine the concentration required for half maximal binding).
Procedure for human FcγR2A 131R: as §1
Procedure for human FcγR2B: as §1
Procedure for human FcγR3A 158F: as §1
Procedure for human FcγR3A 158V: as §1
Procedure for human FcγR3B: as §1

B1: hHVEM-mFc fusion protein (human HVEM extracellular domain fused to mouse IgG1 Fc) (Fc fusion)
chain: LPSCKEDEYPVGSECCPKCSPGYRVKEACGELTGTVCEPCPPGTYIAHLNGLSKCLQCQMCDPAMGLRASRNCSRTENAVCGCSPGHFCIVQDGDHCAACRAYATSSPGQRVQKGGTESQDTLCQNCPPGTFSPNGTLEECQHQTKCSWLVTKAGAGTSSSHLVPRGSGSKPSISTVPEVSSVFIFPPKPKDVLTITLTPKVTCVVVDISKDDPEVQFSWFVDDVEVHTAQTQPREEQFNSTFRSVSELPIMHQDWLNGKEFKCRVNSAAFPAPIEKTISKTKGRPKAPQVYTIPPPKEQMAKDKVSLTCMITDFFPEDITVEWQWNGQPAENYKNTQPIMDTDGSYFVYSKLNVQKSNWEAGNTFTCSVLHEGLHNHHTEKSLSHSPGKHHHHHH
Take B1: in assay [1], the “inhibition of NFkB signal, IC50” value was 0.0096 µM and the “maximal inhibition of NFkB signal” value is 27%.

B2: humanised 2.8.6 hIgG1 D265A S267E A330R (antibody)
heavy: QVTLKESGPALVKPTQTLTLTCTVSGFSLTTYGVHWIRQPPGKALEWLGVMWPGGRTSYNPSLKSRLTITKDNSKSQVVLTMTNMDPVDTATYYCVRGDYEYDYYAMDYWGQGTLVTVSSASTKGPSVFPLAPSSKSTSGGTAALGCLVKDYFPEPVTVSWNSGALTSGVHTFPAVLQSSGLYSLSSVVTVPSSSLGTQTYICNVNHKPSNTKVDKKVEPKSCDKTHTCPPCPAPELLGGPSVFLFPPKPKDTLMISRTPEVTCVVVAVEHEDPEVKFNWYVDGVEVHNAKTKPREEQYNSTYRVVSVLTVLHQDWLNGKEYKCKVSNKALPRPIEKTISKAKGQPREPQVYTLPPSREEMTKNQVSLTCLVKGFYPSDIAVEWESNGQPENNYKTTPPVLDSDGSFFLYSKLTVDKSRWQQGNVFSCSVMHEALHNHYTQKSLSLSPGK
light: EIVLTQSPATLSLSPGERATLSCRASSSVSYMHWYQQKPGQAPRPLIYATSNRATGIPARFSGSGSGTDYTLTISSLEPEDFAVYYCHQWSSNPYTFGQGTKLEIKRTVAAPSVFIFPPSDEQLKSGTASVVCLLNNFYPREAKVQWKVDNALQSGNSQESVTEQDSKDSTYSLSSTLTLSKADYEKHKVYACEVTHQGLSSPVTKSFNRGEC
notes: Fc variant with the variable domains of humanised 2.8.6; copies: 2 + 2
With B2, the binding result with human FcγR3A 158F, with human FcγR3B and with human FcγR3A 158V was “no binding” throughout. Besides, the dissociation constant Kd in the assay with human FcγR2A 131R was 22 µM; with human FcγR2A 131H, 113 µM; with human FcγR2B, 80.1 µM.

B3: humanised 2.8.6 hIgG1 delta ab (antibody)
chain 1: QVTLKESGPALVKPTQTLTLTCTVSGFSLTTYGVHWIRQPPGKALEWLGVMWPGGRTSYNPSLKSRLTITKDNSKSQVVLTMTNMDPVDTATYYCVRGDYEYDYYAMDYWGQGTLVTVSSASTKGPSVFPLAPSSKSTSGGTAALGCLVKDYFPEPVTVSWNSGALTSGVHTFPAVLQSSGLYSLSSVVTVPSSSLGTQTYICNVNHKPSNTKVDKKVEPKSCDKTHTCPPCPAPPVAGPSVFLFPPKPKDTLMISRTPEVTCVVVDVSHEDPEVKFNWYVDGVEVHNAKTKPREEQYNSTYRVVSVLTVLHQDWLNGKEYKCKVSNKGLPSSIEKTISKAKGQPREPQVYTLPPSRDELTKNQVSLTCLVKGFYPSDIAVEWESNGQPENNYKTTPPVLDSDGSFFLYSKLTVDKSRWQQGNVFSCSVMHEALHNHYTQKSLSLSP
chain 2: B2 light
Take B3: in the assay with human FcRn, the “avidity (FcRn pH6)” value was 14.8 nM. Moreover, the Kd with human FcγR3A 158F is 722 µM; with human FcγR3B it was 2820 µM; with human FcγR3A 158V, 494 µM; with human FcγR2A 131R it was 9.56 µM; with human FcγR2A 131H, 4.86 µM; with human FcγR2B, 82.5 µM.
